± gives the uncertainty stated by the source.
Assay: protein stability index of a GFP-peptide fusion (yeast GPS) (PSI 1-4); higher = more stable; sorted into four equal gates, so the index is relative within each strain
In short: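 Tiled 17-residue peptides from yeast proteins were fused downstream of GFP on a plasmid that also expresses Cherry, and the pooled library was carried in yeast. Mid-log cultures grown in leucine-free medium were sorted into four equal gates by GFP/Cherry fluorescence ratio. Plasmids from each gate were PCR-amplified and Illumina-sequenced, and reads were assigned to strains by barcodes. Each peptide's protein stability index is the sum, over gates, of the gate's read frequency multiplied by its gate number.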

Row | Sequence | protein stability index (doa10∆) | protein stability index (pdr5∆) | protein stability index (san1∆) | protein stability index (ubr1∆)
1 | RILNFFDKNTKTTPNTA [YMR153W/NUP53] | 2.42 ± 0.051 | 2.53 ± 0.055 | 2.56 ± 0.048 | 2.43 ± 0.047
2 | KNPLFSYVEPVLVASAK [RPL31A] | 2.95 ± 0.075 | 2.57 ± 0.064 | 2.49 ± 0.066 | 2.76 ± 0.05
3 | RSPVFALNMLPSEILHL [GRR1] | 2.3 ± 0.049 | 2.27 ± 0.042 | 2.4 ± 0.053 | 2.19 ± 0.028
4 | GSTLNVSQMVAVVGQQI [RPO31] | 3.15 ± 0.14 | 2.94 ± 0.1 | 2.84 ± 0.16 | 2.82 ± 0.15
5 | GLGYVFEFQYLTIGVKF [SRB5] | 1.15 ± 0.088 | 1.53 ± 0.1 | 1.08 ± 0.15 | 1.31 ± 0.087
6 | SEKKDTDGADENVQIGE [SRB4] | 2.65 ± 0.12 | 3.31 ± 0.17 |  | 3.06 ± 0.18
7 | QLILSDVDPEFYLKYVD [RET1] | 3.25 ± 0.23 | 2.95 ± 0.15 | 2.72 ± 0.12 | 2.92 ± 0.12
8 | PLGKILLKGDNITLITS [SME1] | 1.9 ± 0.093 | 3.12 ± 0.13 | 1.89 ± 0.16 | 3.07 ± 0.061
9 | RAANQGALPPDLSLIVK [CYT1] | 2.95 ± 0.11 | 3 ± 0.074 | 3.03 ± 0.18 | 2.87 ± 0.074
10 | LREKEDKKNSSDPNNQS [YJL039C/NUP192] | 3.06 ± 0.11 | 3.09 ± 0.13 | 3.17 ± 0.099 | 3.33 ± 0.071
11 | SKFHFSWNESEDTLSGY [PRP28] | 3.07 ± 0.12 | 3.19 ± 0.12 | 3.2 ± 0.075 | 3.47 ± 0.058
12 | STLQHFQETLDSTVVYP [MED8] | 2.99 ± 0.068 | 3.11 ± 0.055 | 2.96 ± 0.055 | 3.17 ± 0.041
13 | SVLLQQLLTPGSKISSN [YGL172W/NUP49] | 2.46 ± 0.093 | 2.83 ± 0.089 | 3.09 ± 0.099 | 2.56 ± 0.14
14 | GSNKAQISIIDIWSISK [YML031W/NDC1] | 2.55 ± 0.056 | 2.76 ± 0.054 | 2.88 ± 0.054 | 2.97 ± 0.048
15 | LLSSSNFEATKKSVLKQ [COR1] | 2.81 ± 0.29 |  |  | 2.83 ± 0.28
16 | ISSRTFGQRAVLKFAAH [RPS0A] | 2.35 ± 0.095 | 2.57 ± 0.098 | 2.69 ± 0.089 | 2.49 ± 0.11
17 | MDIILGIRVQDSVILAS [PRE1] | 1.47 ± 0.23 | 1.62 ± 0.2 | 1.71 ± 0.24 | 1.4 ± 0.11
18 | KELAELKVQKLSRPSLP [RPL35A] | 2.56 ± 0.045 | 2.92 ± 0.052 | 2.5 ± 0.061 | 2.74 ± 0.048
19 | EEKEKEQSKEVGDVVGG [BRN1] | 3.29 ± 0.091 | 3.52 ± 0.1 | 3.29 ± 0.067 | 3.34 ± 0.075
20 | GKKWFEVSQFLIENGAS [NAS6] | 1.91 ± 0.084 | 1.55 ± 0.061 | 1.4 ± 0.1 | 1.49 ± 0.074
21 | ISKTTLTLDPRYIWRSL [RPN3] | 2.75 ± 0.1 | 2.61 ± 0.082 | 2.5 ± 0.085 | 2.6 ± 0.15
22 | EVWSVSWNLTGTILSSA [YGL100W/SEH1] | 1.7 ± 0.07 | 1.5 ± 0.083 | 1.33 ± 0.15 | 1.63 ± 0.061
23 | IAMPKRRMAFKPFGSAK [YLR335W/NUP2] | 2.86 ± 0.052 | 3.09 ± 0.064 | 3.11 ± 0.043 | 2.73 ± 0.044
24 | ERTKLQEHTIFTQLKKN [SNU114] | 1.46 ± 0.057 | 2 ± 0.056 | 1.97 ± 0.084 | 1.58 ± 0.039
25 | IQVLTEASSLGYLDDSE [IRR1] | 1.3 ± 0.068 | 1.56 ± 0.057 | 1.76 ± 0.1 | 1.42 ± 0.055
26 | RGKDGKLHVAAKLPGHK [YGL100W/SEH1] | 3.31 ± 0.14 | 3.13 ± 0.14 |  | 2.7 ± 0.16

Row | Sequence | protein stability index (doa10∆) | protein stability index (pdr5∆) | protein stability index (san1∆) | protein stability index (ubr1∆)
27 | SMENYHLLIKIIRQLSE [SRB8] | 1.71 ± 0.058 | 1.77 ± 0.064 | 2.31 ± 0.11 | 1.63 ± 0.046
28 | RAIPFRRFNSSIGRTAQ [RPL17A] | 2.91 ± 0.07 | 2.87 ± 0.08 | 2.89 ± 0.097 | 2.68 ± 0.06
29 | ELYEVDVLKVNTLVRPN [RPL25] | 2.52 ± 0.095 | 2.67 ± 0.099 | 2.72 ± 0.12 | 2.87 ± 0.088
30 | EIRRFQKSTELLIRKLP [HHT1] | 2.64 ± 0.13 | 2.74 ± 0.095 | 1.87 ± 0.24 | 2.25 ± 0.12
31 | RSATGAKRAQFRKKRKF [RPS8A] | 2.94 ± 0.1 | 2.5 ± 0.085 | 3.42 ± 0.096 | 2.68 ± 0.073
32 | TGEWFSSYEEFLERFDF [ITC1] | 2.99 ± 0.098 | 1.99 ± 0.06 | 2.09 ± 0.12 | 2 ± 0.15
33 | IGEFNVSMYQNSSTSST [YDL088C/ASM4] | 3.61 ± 0.28 | 1.97 ± 0.13 |  | 2.17 ± 0.098
34 | DGHLRAPLKHGVGILYK [BRR2] | 1.31 ± 0.055 | 2.33 ± 0.08 | 1.58 ± 0.2 | 1.26 ± 0.07
35 | NYELEKIADNISKDENE [YDL116W/NUP84] | 3.03 ± 0.09 | 3.04 ± 0.077 | 2.98 ± 0.048 | 3.14 ± 0.055
36 | PYFPGGSIAMARVLFDD [CYT1] | 2.29 ± 0.14 | 1.88 ± 0.1 | 2.61 ± 0.11 | 2.69 ± 0.093
37 | VITIKSRIRVKIEGCIS [RPB7] | 2.04 ± 0.082 | 2.13 ± 0.056 | 1.88 ± 0.081 | 2.07 ± 0.064
38 | MQKPVPFVPVLDRRFEI [FAS1] | 1.98 ± 0.034 | 1.95 ± 0.03 | 1.82 ± 0.043 | 1.92 ± 0.028
39 | TLLIAIRGSNRDLKPSN [YML103C/NUP188] | 1.92 ± 0.18 | 2.41 ± 0.13 | 2.52 ± 0.098 | 2.8 ± 0.087
40 | RAPIYHSKFRSSSGNTW [YML031W/NDC1] | 2.43 ± 0.11 | 2.34 ± 0.06 | 3.15 ± 0.084 | 2.59 ± 0.06
41 | ELALKTLSKTTDSSALT [PRE9] | 2.62 ± 0.057 | 2.1 ± 0.06 | 2.54 ± 0.065 | 2.73 ± 0.043
42 | KCKTRAQLTLKRCKHFE [RPL42A] | 2.65 ± 0.088 | 2.58 ± 0.085 | 2.85 ± 0.064 | 2.68 ± 0.061
43 | FGIYILTQGINGKEVPL [MED1] | 1.48 ± 0.1 | 1.45 ± 0.068 | 2.43 ± 0.14 | 1.38 ± 0.066
44 | LDRELLKPSMSVALHRH [RPT3] | 2.98 ± 0.082 | 2.71 ± 0.1 | 3.07 ± 0.071 | 2.7 ± 0.16
45 | EEKKKEHEEKEKERETN [RPN2] | 3.3 ± 0.23 | 3.37 ± 0.1 | 3.38 ± 0.15 | 3.44 ± 0.24
46 | VVLSFSGLNADSRILIE [PRE6] | 2.87 ± 0.15 | 3.26 ± 0.2 | 3.19 ± 0.072 | 3.3 ± 0.13
47 | EWDMLNVEEEQIVPYIE [BRR2] | 3.2 ± 0.17 | 3.41 ± 0.18 | 3.02 ± 0.24 | 3.45 ± 0.29
48 | NNFIVERVQSDENKDDE [SRP68] | 3.52 ± 0.16 | 3.35 ± 0.1 | 2.77 ± 0.23 | 3.04 ± 0.098
49 | SNNITSGLNRAISTGNW [RET1] | 3.13 ± 0.11 | 3.37 ± 0.11 | 3.25 ± 0.061 | 3 ± 0.079
50 | SNLTIYPIYELLMSCPR [GRR1] | 1.72 ± 0.083 | 1.75 ± 0.071 | 1.89 ± 0.13 | 1.83 ± 0.056
51 | NTSLISLFTYFREAIVA [PRP8] | 1.3 ± 0.049 | 1.49 ± 0.054 | 1.34 ± 0.1 | 1.44 ± 0.049
52 | QPSKVSSNVQQPQQQLG [RTT102] | 2.82 ± 0.081 | 2.88 ± 0.094 | 2.61 ± 0.082 | 3.03 ± 0.1

Source: the supplement of paper PMC9732359
